Experimental findings from patent US20230270824A1, “INTERFERON-BASED CANCER TREATMENT METHOD AND PHARMACEUTICAL COMPOSITION” (XIAMEN AMOYTOP BIOTECH CO., LTD., priority 2019, published 2023) are described below.

Data set [1] concerns transplanted lung cancer LLC. The data set can be described thus: Interferon combined with gemcitabine, transplanted lung cancer LLC in mice (Example 6). In kind it is in vivo, C57BL/6N mice. Here is the method: In this example, a comparative study on the efficacy of PEG-mIFN-α4 intermittent administration (once every 48 hours for four consecutive times, then drug withdrawal for 192 hours; for 5 rounds), PEG-mIFN-α4 continuous administration (once every 48 hours for 32 consecutive times), PEG-mIFN-α4 in combination with gemcitabine (PEG-mIFN-α4: once every 48 hours for four consecutive times, then drug withdrawal for 360 hours, 4 rounds; gemcitabine: once a week) on transplanted […] LLC in mice was performed.
On the day when the tumor was inoculated, they were randomly divided into PEG-mIFN-α4 continuous administration group (N=26, female 13, male 13), PEG-mIFN-α4 intermittent administration group (N=26, female 13, male 13), the normal saline control group (N=26, female 13, male 13), the gemcitabine only group (N=26, female 13, male 13), and PEG-mIFN-α4 combined with gemcitabine group (N=26, female 13, male 13).
For the PEG-mIFN-α4 intermittent administration group, PEG-mIFN-α4 was administered once every 48 hours for 4 consecutive times, then drug withdrawal for 192 hours; for […]. For the PEG-mIFN-α4 continuous administration group, PEG-mIFN-α4 was administered once every 48 hours. For the PEG-mIFN-α4 combined with gemcitabine group, PEG-mIFN-α4 was administered once every 48 hours for 4 consecutive times, then drug withdrawal for 360 hours; for 4 rounds; and gemcitabine was administered once a week. For the gemcitabine only group, gemcitabine was administered once a week. For the saline control group, equal volume of saline was administered. Gemcitabine was injected intraperitoneally, 60 mg/kg.
SAS9.4 software was used for comparing the difference in mortality, and the statistical tests were all two-sided tests.

Data set [2] deals with transplanted liver cancer H22. The data set can be described thus: Interferon combined with gemcitabine, transplanted liver cancer H22 in mice (Example 5). The following applies: 108 days observation. It is filed as in vivo, BALB/c mice. As to the method:
In this example, a comparative study on the efficacy of PEG-mIFN-α4 intermittent administration (once every 48 hours for three consecutive times, then drug withdrawal for 144 hours; for 8 rounds), PEG-mIFN-α4 continuous administration (once every 48 hours for 42 consecutive times), PEG-mIFN-α4 in combination with gemcitabine (PEG-mIFN-α4: once every 48 hours for three consecutive times, then drug withdrawal for 240 hours, 6 rounds; gemcitabine: once a week) on H22 transplanted liver cancer in mice was performed.
On the day when the tumor was inoculated, they were randomly divided into PEG-mIFN-α4 continuous administration group (N=24, female 12, male 12), PEG-mIFN-α4 intermittent administration group (N=24, female 12, male 12), the normal saline control group (N=24, female 12, male 12), the gemcitabine only group (N=24, female 12, male 12), and PEG-mIFN-α4 combined with gemcitabine group (N=24, female 12, male 12).
Gemcitabine was injected intraperitoneally, 60 mg/kg.
For the PEG-mIFN-α4 intermittent administration group, PEG-mIFN-α4 was administered once every 48 hours for three consecutive times, then drug withdrawal for 144 hours; for 8 rounds. For the PEG-mIFN-α4 continuous administration group, PEG-mIFN-α4 was administered once every 48 hours. For the PEG-mIFN-α4 combined with gemcitabine group, PEG-mIFN-α4 was administered once every 48 hours for three consecutive times, then drug withdrawal for 240 hours; for 6 rounds; and gemcitabine was administered once a week. For the gemcitabine only group, gemcitabine was administered once a week. For the saline control group, equal volume of saline was administered.
Survival analysis was performed for all groups to compare the differences between groups.

Data set [3] in a line: Pharmacokinetic study of single subcutaneous injection in healthy BALB/c mice (double-antibody sandwich ELISA). Here is the method: 6-8 weeks old, SPF grade BALB/c mice (N=60, with fifty-fifty of male and female mice) were injected with a single injection of 1 μg/mouse PEG-mIFN-α4 subcutaneously on the back of the neck. Plasma samples were collected before the injection (0 h) and after the injection at 15 h, 24 h, 36 h, 48 h, 72 h, 96 h, 120 h, 168 h, 216 h, 264 h, 312 h, to determine the blood concentration. Phoenix WinNonlin 6.4 software was used to calculate the pharmacokinetic parameters.
For orientation: ELISA stands for enzyme-linked immunosorbent assay.

Data set [4] deals with transplanted liver cancer H22. Description: Continuous vs intermittent administration, transplanted liver cancer H22 in mice (Example 4). In kind it is in vivo, BALB/c mice. Particulars: continuous administration: 1 μg s.c. once every 48 hours, 21 times, Day 40 after tumor inoculation.

Values joined by “and” are separate entries in the source; they are usually repeats but may differ in a detail not shown here. Identical values can stand only once.

B1: PEG-mIFN-α4: deglycosylated recombinant mouse interferon α4 modified with 40 kD Y-type polyethylene glycol (YPEG-NHS); SEQ ID NO: 6 (protein)
chain: CDLPHTYNLGNKRALTVLEEMRRLPPLSCLKDRKDFGFPLEKVDNQQIQKAQAILVLRDLTQQILNLFTSKDLSATWNATLLDSFCNDLHQQLNDLKACVMQEPPLTQEDSLLAVRTYFHRITVYLRKKKHSLCAWEVIRAEVWRALSSSTNLLARLSEEKE
modifications: 40 kD Y-type PEG; deglycosylated; amino acid sequence of peginterferon murine 4
B1: the Mortality in data set [1] (continuous administration (1 μg/mouse s.c. once every 48 hours), 45 days after tumor inoculation) was 100%; in data set [1] (continuous administration (once every 48 hours), Day 64 post tumor inoculation), 100%; in data set [1] (intermittent administration (every 48 h x4, withdrawal 192 h), 45 days after tumor inoculation), 34.6%; in data set [1] (intermittent administration (every 48 h x4, withdrawal 192 h), Day 64 post tumor inoculation), 84.6%. For the same molecule, the “Mean survival period (days post tumor inoculation)” value was 37.0 days in data set [2] (continuous administration: 1 μg/mouse s.c. once every 48 hours, 42 times) and 64.0 days in data set [2] (intermittent administration: 1 μg/mouse s.c. every 48 h x3, withdrawal 144 h, 8 rounds). In addition, the Individual blood concentration in data set [3] (collected at 96 h, individual mice 1-5, single s.c. 1 μg/mouse) was 87.5 ng/mL. Moreover, the “Cl_F—obs” value in data set [3] (mouse, in vivo, sc) was determined as 0.07 mL/h. This molecule also returned a T1/2 in data set [3] (mouse, in vivo, sc) of 28.3 h. In addition, in data set [3] (mouse, in vivo, sc), the time to peak (Tmax) came to 24 h. Moreover, the “Vz_F—obs” value in data set [3] (mouse, in vivo, sc) was determined as 2.91 mL. Moreover, the “Median survival period (Time after tumor inoculation, days)” value in data set [4] is 38 days and 38.0 days.

What is called Tmax is the time at which the peak concentration occurs.
